Test results as given in patent EP4818204A1 (Nanjing Leads Biolabs Co., Ltd., dated 2026).

T1: human GFRα1 protein (human, UniProt P56159 25-429, limits assumed)
T1 construct: Bought
T1 sequence (looked up): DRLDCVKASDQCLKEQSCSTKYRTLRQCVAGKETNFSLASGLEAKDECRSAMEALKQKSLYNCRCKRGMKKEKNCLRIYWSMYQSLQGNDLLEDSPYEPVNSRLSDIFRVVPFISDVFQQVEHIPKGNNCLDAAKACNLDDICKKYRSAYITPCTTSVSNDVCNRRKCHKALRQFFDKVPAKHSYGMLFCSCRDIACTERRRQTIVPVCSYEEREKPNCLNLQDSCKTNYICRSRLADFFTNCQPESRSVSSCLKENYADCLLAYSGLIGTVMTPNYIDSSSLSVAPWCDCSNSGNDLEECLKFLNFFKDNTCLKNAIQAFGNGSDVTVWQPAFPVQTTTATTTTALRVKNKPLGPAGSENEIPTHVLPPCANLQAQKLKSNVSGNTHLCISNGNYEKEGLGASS

T2: human GDF11 protein (human, UniProt O95390 299-407)
T2 construct: Bought
T2 sequence (looked up): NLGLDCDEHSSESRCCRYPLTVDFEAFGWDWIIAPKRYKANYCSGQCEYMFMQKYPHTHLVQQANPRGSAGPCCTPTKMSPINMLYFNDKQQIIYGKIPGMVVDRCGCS

T3: human GDF3 protein (human, UniProt Q9NR23 251-364, limits assumed)
T3 construct: Bought
T3 sequence (looked up): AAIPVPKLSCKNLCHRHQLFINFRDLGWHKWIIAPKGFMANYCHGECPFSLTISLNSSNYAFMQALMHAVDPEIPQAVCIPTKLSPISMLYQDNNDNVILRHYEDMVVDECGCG

T4: human GDF1 protein (human, UniProt P27539 254-372, limits assumed)
T4 construct: Bought
T4 sequence (looked up): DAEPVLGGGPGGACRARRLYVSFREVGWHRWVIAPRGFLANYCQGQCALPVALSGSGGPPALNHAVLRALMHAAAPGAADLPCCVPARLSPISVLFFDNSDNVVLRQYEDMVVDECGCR

T5: human Activin A protein (human, UniProt P08476 311-426)
T5 construct: Bought; Activin A is by nature a dimer of inhibin beta A chains
T5 sequence (looked up): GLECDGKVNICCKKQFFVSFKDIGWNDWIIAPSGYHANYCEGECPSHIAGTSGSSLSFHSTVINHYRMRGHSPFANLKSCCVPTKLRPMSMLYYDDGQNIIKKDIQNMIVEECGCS

T6: human GDF2 protein (human, UniProt Q9UK05 320-429)
T6 construct: Bought
T6 sequence (looked up): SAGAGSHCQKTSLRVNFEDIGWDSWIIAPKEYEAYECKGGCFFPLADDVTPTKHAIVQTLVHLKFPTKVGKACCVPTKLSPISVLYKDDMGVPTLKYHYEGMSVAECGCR

T7: human Activin B protein (human, UniProt P09529 293-407)
T7 construct: Bought; Activin B is by nature a dimer of inhibin beta B chains
T7 sequence (looked up): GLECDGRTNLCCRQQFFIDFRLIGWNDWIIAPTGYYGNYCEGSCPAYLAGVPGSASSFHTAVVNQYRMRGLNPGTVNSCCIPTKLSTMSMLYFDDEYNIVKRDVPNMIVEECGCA

T8: human BMP4 protein (human, UniProt P12644 293-408)
T8 construct: Bought
T8 sequence (looked up): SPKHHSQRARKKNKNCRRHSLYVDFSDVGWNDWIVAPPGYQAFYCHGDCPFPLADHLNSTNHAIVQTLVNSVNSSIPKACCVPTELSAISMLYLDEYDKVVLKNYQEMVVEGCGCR

T9: Human GDF15 protein (human, UniProt Q99988 197-308)
T9 construct: Natural GDF15 is said to be a disulfide-linked homodimer; also called Human-GDF15-his
T9 sequence: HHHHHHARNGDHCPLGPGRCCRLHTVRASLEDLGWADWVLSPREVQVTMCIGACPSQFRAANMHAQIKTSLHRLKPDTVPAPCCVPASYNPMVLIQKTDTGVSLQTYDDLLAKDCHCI


Key:
human GFRα1 protein [1] = target: T1, human GFRα1 protein; assay: ELISA, coated protein
human GDF11 protein [2] = target: T2, human GDF11 protein; assay: ELISA, coated protein
human GDF3 protein [3] = target: T3, human GDF3 protein; assay: ELISA, coated protein
human GDF1 protein [4] = target: T4, human GDF1 protein; assay: ELISA, coated protein
human Activin A protein [5] = target: T5, human Activin A protein; assay: ELISA, coated protein
human BMP2 protein [6] = target: T10, human BMP2 protein (human, UniProt P12643 283-396); assay: ELISA, coated protein
T10 construct: Bought
T10 sequence (P12643 283-396 limits assumed): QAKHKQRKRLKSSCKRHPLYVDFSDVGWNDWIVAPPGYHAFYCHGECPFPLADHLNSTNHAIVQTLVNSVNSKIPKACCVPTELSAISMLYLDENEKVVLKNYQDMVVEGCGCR

human TGFβ1 protein [7] = target: T11, human TGFβ1 protein (human, UniProt P01137 279-390); assay: ELISA, coated protein
T11 construct: Bought
T11 sequence (P01137 279-390 limits assumed): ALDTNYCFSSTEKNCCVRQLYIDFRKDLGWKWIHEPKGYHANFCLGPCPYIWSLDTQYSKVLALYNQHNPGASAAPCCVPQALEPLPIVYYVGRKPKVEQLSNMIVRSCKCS

human GDF2 protein [8] = target: T6, human GDF2 protein; assay: ELISA, coated protein
human Activin B protein [9] = target: T7, human Activin B protein; assay: ELISA, coated protein
human BMP4 protein [10] = target: T8, human BMP4 protein; assay: ELISA, coated protein
[11] = target: human GDF8 protein (human) (UniProt O14793); assay: ELISA, coated protein, antibody at 4 µg/mL
[12] = target: human AMH protein (human) (UniProt P03971); assay: ELISA, coated protein, antibody at 4 µg/mL
human GFRα1 protein [13] = target: T1, human GFRα1 protein; assay: ELISA, coated protein, antibody at 4 µg/mL
human GDF11 protein [14] = target: T2, human GDF11 protein; assay: ELISA, coated protein, antibody at 4 µg/mL
human GDF3 protein [15] = target: T3, human GDF3 protein; assay: ELISA, coated protein, antibody at 4 µg/mL
human GDF1 protein [16] = target: T4, human GDF1 protein; assay: ELISA, coated protein, antibody at 4 µg/mL
human Activin A protein [17] = target: T5, human Activin A protein; assay: ELISA, coated protein, antibody at 4 µg/mL
human BMP2 protein [18] = target: T10, human BMP2 protein; assay: ELISA, coated protein, antibody at 4 µg/mL
human TGFβ1 protein [19] = target: T11, human TGFβ1 protein; assay: ELISA, coated protein, antibody at 4 µg/mL
human GDF2 protein [20] = target: T6, human GDF2 protein; assay: ELISA, coated protein, antibody at 4 µg/mL
Human GDF15 protein = target: T9, Human GDF15 protein; assay: ELISA, coated protein, antibody at 4 µg/mL
human Activin B protein [21] = target: T7, human Activin B protein; assay: ELISA, coated protein, antibody at 4 µg/mL
human BMP4 protein [22] = target: T8, human BMP4 protein; assay: ELISA, coated protein, antibody at 4 µg/mL

binding result (human GFRα1 protein [1]) | binding result (human GDF11 protein [2]) | binding result (human GDF3 protein [3]) | binding result (human GDF1 protein [4]) | binding result (human Activin A protein [5]) | binding result (human BMP2 protein [6]) | binding result (human TGFβ1 protein [7]) | binding result (human GDF2 protein [8]) | binding result (human Activin B protein [9]) | binding result (human BMP4 protein [10]) | OD value (OD 450 nm-620 nm) [11] | OD value (OD 450 nm-620 nm) [12] | OD value (human GFRα1 protein [13]) | OD value (human GDF11 protein [14]) | OD value (human GDF3 protein [15]) | OD value (human GDF1 protein [16]) | OD value (human Activin A protein [17]) | OD value (human BMP2 protein [18]) | OD value (human TGFβ1 protein [19]) | OD value (human GDF2 protein [20]) | Binder | other results
no binding (tested: 4 µg/mL) | no binding (tested: 4 µg/mL) | no binding (tested: 4 µg/mL) | no binding (tested: 4 µg/mL) | no binding (tested: 4 µg/mL) | no binding (tested: 4 µg/mL) | no binding (tested: 4 µg/mL) | no binding (tested: 4 µg/mL) | no binding (tested: 4 µg/mL) | no binding (tested: 4 µg/mL) | 0.0426 | 0.0537 | 0.0655 OD 450 nm-620 nm | 0.0426 OD 450 nm-620 nm | 0.041 OD 450 nm-620 nm | 0.0412 OD 450 nm-620 nm | 0.0632 OD 450 nm-620 nm | 0.0683 OD 450 nm-620 nm | 0.0426 OD 450 nm-620 nm | 0.0648 OD 450 nm-620 nm | Hu21H6D2 (antibody, human IgG1, kappa, V domains shown, Humanized form of murine 21H6D2; human IgG1 constant region with L234A, L235A, G237A and kappa light chain constant region; also called hu21H6D2-IgG1-mut(L234A,L235A,G237A)) VH: QVQLVQSGAEVKKPGASVKVSCKASGYTFTGYIMNWVRQAPGQRLEWMGDIDPYYGDAKYNQKFKGKVTITVDKSASTAYMELSSLRSEDTAVYYCARRDYDHGSFAYWGQGTLVTVSS VL: EIVLTQSPDFQSVTPKEKVTITCSASSSVNYMHWYQQKPDQSPKRLIYDTSKLASGVPSRFSGSGSGTDYTLTINSLEAEDAATYYCQQWSSNPPTFGQGTKLEIKR | OD value (Human GDF15 protein): 3.17 OD 450 nm-620 nm; OD value (human Activin B protein [21]): 0.0899 OD 450 nm-620 nm; OD value (human BMP4 protein [22]): 0.0411 OD 450 nm-620 nm
no binding (tested: 4 µg/mL) | no binding (tested: 4 µg/mL) | no binding (tested: 4 µg/mL) | no binding (tested: 4 µg/mL) | no binding (tested: 4 µg/mL) | no binding (tested: 4 µg/mL) | no binding (tested: 4 µg/mL) | no binding (tested: 4 µg/mL) | no binding (tested: 4 µg/mL) | no binding (tested: 4 µg/mL) | 0.0423 | 0.0464 | 0.0468 OD 450 nm-620 nm | 0.0368 OD 450 nm-620 nm | 0.0418 OD 450 nm-620 nm | 0.0433 OD 450 nm-620 nm | 0.0577 OD 450 nm-620 nm | 0.0457 OD 450 nm-620 nm | 0.0437 OD 450 nm-620 nm | 0.0678 OD 450 nm-620 nm | Hu19C4C7 (antibody, human IgG1, kappa, Humanized form of murine 19C4C7; human IgG1 constant region with L234A, L235A, G237A and kappa light chain constant region; also called hu19C4C7-IgG1-mut(L234A,L235A,G237A)) heavy: QVQLVQSGAEVKKPGSSVKVSCKASGYSFTGYIMNWVRQAPGQSLEWMGDIDPYYGGPNYNQKFQGRVTITVDKSTSTAYMELSSLRSEDTAVYYCSRRDYNYGSFAYWGQGTLVTVSSASTKGPSVFPLAPSSKSTSGGTAALGCLVKDYFPEPVTVSWNSGALTSGVHTFPAVLQSSGLYSLSSVVTVPSSSLGTQTYICNVNHKPSNTKVDKKVEPKSCDKTHTCPPCPAPEAAGAPSVFLFPPKPKDTLMISRTPEVTCVVVDVSHEDPEVKFNWYVDGVEVHNAKTKPREEQYNSTYRVVSVLTVLHQDWLNGKEYKCKVSNKALPAPIEKTISKAKGQPREPQVYTLPPSREEMTKNQVSLTCLVKGFYPSDIAVEWESNGQPENNYKTTPPVLDSDGSFFLYSKLTVDKSRWQQGNVFSCSVMHEALHNHYTQKSLSLSPGK light: QIVLTQSPATLSLSPGERATLSCRASSSVNYMHWYQQKPGQAPRPLIYATSNLATGIPARFSGSGSGTDYTLTISSLEPEDFAVYYCQQWSDNPPTFGQGTKLEIKRTVAAPSVFIFPPSDEQLKSGTASVVCLLNNFYPREAKVQWKVDNALQSGNSQESVTEQDSKDSTYSLSSTLTLSKADYEKHKVYACEVTHQGLSSPVTKSFNRGEC | OD value (Human GDF15 protein): 3.27 OD 450 nm-620 nm; OD value (human Activin B protein [21]): 0.136 OD 450 nm-620 nm; OD value (human BMP4 protein [22]): 0.0432 OD 450 nm-620 nm
no binding (tested: 4 µg/mL) | no binding (tested: 4 µg/mL) | no binding (tested: 4 µg/mL) | no binding (tested: 4 µg/mL) | no binding (tested: 4 µg/mL) | no binding (tested: 4 µg/mL) | no binding (tested: 4 µg/mL) | no binding (tested: 4 µg/mL) | no binding (tested: 4 µg/mL) | no binding (tested: 4 µg/mL) | 0.0421 | 0.0485 | 0.27 OD 450 nm-620 nm | 0.04 OD 450 nm-620 nm | 0.0406 OD 450 nm-620 nm | 0.0504 OD 450 nm-620 nm | 0.0493 OD 450 nm-620 nm | 0.0538 OD 450 nm-620 nm | 0.055 OD 450 nm-620 nm | 0.0644 OD 450 nm-620 nm | HuVHH43-3 (Fc fusion, also called huVHH43-IgG1-mut(L234A,L235A,G237A); VHH humanized anti-GDF15 antibody) heavy: QLQLVESGGGLVQPGGSLRLSCAASGHTYGMGWFRQAPGKAREIVSAISRSGSSTYYADSVKGRFTISRDNSKNTLYLQMNSLRAEDTAVYICGASTSALVPTTTGMYAYWGQGTRVTVSSEPKSSDKTHTCPPCPAPEAAGAPSVFLFPPKPKDTLMISRTPEVTCVVVDVSHEDPEVKFNWYVDGVEVHNAKTKPREEQYNSTYRVVSVLTVLHQDWLNGKEYKCKVSNKALPAPIEKTISKAKGQPREPQVYTLPPSREEMTKNQVSLTCLVKGFYPSDIAVEWESNGQPENNYKTTPPVLDSDGSFFLYSKLTVDKSRWQQGNVFSCSVMHEALHNHYTQKSLSLSPGK | OD value (Human GDF15 protein): 3.21 OD 450 nm-620 nm; OD value (human Activin B protein [21]): 0.062 OD 450 nm-620 nm; OD value (human BMP4 protein [22]): 0.0539 OD 450 nm-620 nm
